# Assay results published in patent US10314894B2, “Treatment of cardio-renal disease using PCSK6” (THE CLEVELAND CLINIC FOUNDATION, priority 2014, dated 2019).
# T1: corin mutant R801A (Homo sapiens, UniProt Q9Y5Q5, R801A)
# T1 construct: expressed in transfected cells; host or cells: HEK293
# T1 sequence (Q9Y5Q5 1-1042 R801A): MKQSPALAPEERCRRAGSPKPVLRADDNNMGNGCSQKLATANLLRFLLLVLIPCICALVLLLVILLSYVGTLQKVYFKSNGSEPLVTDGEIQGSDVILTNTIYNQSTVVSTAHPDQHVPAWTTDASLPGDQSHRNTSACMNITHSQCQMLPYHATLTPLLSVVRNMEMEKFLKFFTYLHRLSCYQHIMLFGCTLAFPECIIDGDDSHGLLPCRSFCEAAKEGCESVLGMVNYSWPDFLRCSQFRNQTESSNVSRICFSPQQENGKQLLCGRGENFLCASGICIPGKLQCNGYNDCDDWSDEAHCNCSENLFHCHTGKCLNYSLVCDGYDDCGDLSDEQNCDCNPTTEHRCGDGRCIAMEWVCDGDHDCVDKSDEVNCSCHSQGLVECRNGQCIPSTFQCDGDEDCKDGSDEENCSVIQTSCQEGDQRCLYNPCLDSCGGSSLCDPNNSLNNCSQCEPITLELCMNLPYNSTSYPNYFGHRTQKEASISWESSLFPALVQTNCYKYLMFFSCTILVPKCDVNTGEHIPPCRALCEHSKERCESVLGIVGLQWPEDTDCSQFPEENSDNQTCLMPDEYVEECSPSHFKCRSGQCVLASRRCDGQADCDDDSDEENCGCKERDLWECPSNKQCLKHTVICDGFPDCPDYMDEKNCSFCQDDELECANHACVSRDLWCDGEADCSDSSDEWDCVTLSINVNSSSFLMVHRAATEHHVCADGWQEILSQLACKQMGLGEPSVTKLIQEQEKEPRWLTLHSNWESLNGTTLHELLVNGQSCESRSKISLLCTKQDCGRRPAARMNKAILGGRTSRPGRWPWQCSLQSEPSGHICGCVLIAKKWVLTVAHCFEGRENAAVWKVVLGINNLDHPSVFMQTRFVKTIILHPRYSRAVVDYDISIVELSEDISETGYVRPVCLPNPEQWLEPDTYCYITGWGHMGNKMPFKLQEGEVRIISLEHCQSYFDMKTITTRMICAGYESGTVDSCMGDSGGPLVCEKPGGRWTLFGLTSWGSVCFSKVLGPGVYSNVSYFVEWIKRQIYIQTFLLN
# B1: proprotein convertase subtilisin/kexin-6 (protein, listed as Homo sapiens)
# chain: MPPRAPPAPGPRPPPRAAAATDTAAGAGGAGGAGGAGGPGFRPLAPRPWRWLLLLALPAACSAPPPRPVYTNHWAVQVLGGPAEADRVAAAHGYLNLGQIGNLEDYYHFYHSKTFKRSTLSSRGPHTFLRMDPQVKWLQQQEVKRRVKRQVRSDPQALYFNDPIWSNMWYLHCGDKNSRCRSEMNVQAAWKRGYTGKNVVVTILDDGIERNHPDLAPNYDSYASYDVNGNDYDPSPRYDASNENKHGTRCAGEVAASANNSYCIVGIAYNAKIGGIRMLDGDVTDVVEAKSLGIRPNYIDIYSASWGPDDDGKTVDGPGRLAKQAFEYGIKKGRQGLGSIFVWASGNGGREGDYCSCDGYTNSIYTISVSSATENGYKPWYLEECASTLATTYSSGAFYERKIVTTDLRQRCTDGHTGTSVSAPMVAGIIALALEANSQLTWRDVQHLLVKTSRPAHLKASDWKVNGAGHKVSHFYGFGLVDAEALVVEAKKWTAVPSQHMCVAASDKRPRSIPLVQVLRTTALTSACAEHSDQRVVYLEHVVVRTSISHPRRGDLQIYLVSPSGTKSQLLAKRLLDLSNEGFTNWEFMTVHCWGEKAEGQWTLEIQDLPSQVRNPEKQGKLKEWSLILYGTAEHPYHTFSAHQSRSRMLELSAPELEPPKAALSPSQVEVPEDEEDYTAQSTPGSANILQTSVCHPECGDKGCDGPNADQCLNCVHFSLGSVKTSRKCVSVCPLGYFGDTAARRCRRCHKGCETCSSRAATQCLSCRRGFYHHQEMNTCVTLCPAGFYADESQKNCLKCHPSCKKCVDEPEKCTVCKEGFSLARGSCIPDCEPGTYFDSELIRCGECHHTCGTCVGPGREECIHCAKNFHFHDWKCVPACGEGFYPEEMPGLPHKVCRRCDENCLSCAGSSRNCSRCKTGFTQLGTSCITNHTCSNADETFCEMVKSNRLCERKLFIQFCCRTCLLAG
# modifications: C-terminal FLAG tag
# Tests used:
# [1] = target: T1, corin mutant R801A; assay: PCSK6-mediated corin activation in HEK293 cells, corin mutant R801A (control); type: cell-based; details: corin mutant R801A lacking the cleavage site
# Description: Plasmids expressing human corin WT and mutants R801A, S985A, T555I, Q568P, T555I/Q568P, K317E, S472G and R539C were reported previously. Dong, N. et al., J Biol Chem 289, 17909-17916 (2014); Knappe et al., J Biol Chem 278, 52363-52370 (2003); Wu et al., J Biol Chem 277, 16900-16905. (2002). Plasmids expressing human PCSK1-9 were made by cloning respective cDNAs into pcNDA3.1 vector. Recombinant corin and PCSK proteins encoded by these plasmids contained a C-terminal V5 or flag tag for protein detection in Western blotting.
# HEK293 and HL-1 cells were transfected with corin or PCSK6 expression plasmids. After 48-72 h, cells were lysed in a buffer containing 25 mM Tris-HCl, pH 7.4, 150 mM NaCl, 1 mM EDTA, 1% (v/v) NP-40, and 1% (v/v) protease inhibitor cocktail. Recombinant corin and PCSK6 proteins were immunoprecipitated with an anti-V5 or anti-flag antibody. Western blotting was carried out to analyze corin expression and activation or PCSK6 expression with or without reducing agents. Percentage of corin activation (corin-p vs. corin fragments) was quantified by densitometric analysis of Western blots.
# [2] = target: T1, corin mutant R801A; assay: Corin activation by purified PCSK6 on HEK293 cells, corin mutant R801A; type: cell-based; details: corin R801A mutant lacking the cleavage site, 2 h
# Procedure: HEK293 and HL-1 cells expressing recombinant corin in 6-well plates were incubated with 1.5 mL (200 μM) of membrane impermeable Sulfo-NHS-SS-biotin for 5 min. Qi et al., J Biol Chem 286, 20963-20969 (2011). A quenching solution was added to the wells and incubated on ice for 10 min. Cells were lysed in the lysis buffer. Labeled proteins were isolated with avidin-coupled agarose beads and analyzed by Western blotting.
# Stable HEK293 cells were established to produce human PCSK6 with a C-terminal flag tag. The cells were cultured in DMEM with 10% FBS and 600 μg/mL G418. At confluency, the cells were washed with PBS and cultured with Reduced-Serum Medium. After 72 h, the conditioned medium was collected, centrifuged (10 min at 17,000 g) to remove cell debris, and concentrated to ⅕ of the original volume using a Centrifugal filter unit at 4° C. The concentrated medium was incubated with anti-flag M2 affinity bead slurry in a volume ratio of 25:1 on a rotator at 4° C. for 2 h. […] After centrifugation, the supernatant containing purified PCSK6 was collected, and analyzed by SDS-PAGE followed by silver staining and Western blotting.
# Stable HEK293 cells expressing human corin were cultured in 6-well plates in DMEM with 10% FBS and 2 μM monensin. […] After 2 h, cell surface proteins were labeled and corin protein was analyzed by Western blotting.
molecule,measurement,setting,value
B1,PCSK6-mediated activation cleavage,[1],no activation cleavage was detected
same,activation of corin on the cell surface by purified recombinant PCSK6,[2],did not cleave
